Read-outs that look alike come from different tables or passages of the source.
T1: cyno MerTK-his protein (cynomolgus, UniProt A0A2K5V1H9 27-505)
T1 construct: also called cyno MerTK protein; Cynomolgus
T1 sequence: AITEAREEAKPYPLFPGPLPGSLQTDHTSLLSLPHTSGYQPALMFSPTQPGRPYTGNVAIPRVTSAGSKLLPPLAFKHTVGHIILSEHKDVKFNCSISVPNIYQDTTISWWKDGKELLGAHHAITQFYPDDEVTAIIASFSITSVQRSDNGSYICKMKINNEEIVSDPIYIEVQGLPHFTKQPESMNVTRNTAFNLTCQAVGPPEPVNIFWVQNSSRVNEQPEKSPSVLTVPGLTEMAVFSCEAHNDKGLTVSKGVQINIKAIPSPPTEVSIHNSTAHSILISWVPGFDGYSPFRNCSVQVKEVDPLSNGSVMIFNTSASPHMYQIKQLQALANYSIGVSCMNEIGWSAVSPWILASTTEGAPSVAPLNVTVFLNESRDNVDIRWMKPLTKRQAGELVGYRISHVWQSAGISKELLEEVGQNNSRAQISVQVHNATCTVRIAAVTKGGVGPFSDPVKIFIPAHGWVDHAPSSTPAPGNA

T2: human MerTK-his protein (human, UniProt Q12866 21-505)
T2 construct: extracellular domain; also called hMerTK-His; human MerTK protein
T2 sequence (looked up): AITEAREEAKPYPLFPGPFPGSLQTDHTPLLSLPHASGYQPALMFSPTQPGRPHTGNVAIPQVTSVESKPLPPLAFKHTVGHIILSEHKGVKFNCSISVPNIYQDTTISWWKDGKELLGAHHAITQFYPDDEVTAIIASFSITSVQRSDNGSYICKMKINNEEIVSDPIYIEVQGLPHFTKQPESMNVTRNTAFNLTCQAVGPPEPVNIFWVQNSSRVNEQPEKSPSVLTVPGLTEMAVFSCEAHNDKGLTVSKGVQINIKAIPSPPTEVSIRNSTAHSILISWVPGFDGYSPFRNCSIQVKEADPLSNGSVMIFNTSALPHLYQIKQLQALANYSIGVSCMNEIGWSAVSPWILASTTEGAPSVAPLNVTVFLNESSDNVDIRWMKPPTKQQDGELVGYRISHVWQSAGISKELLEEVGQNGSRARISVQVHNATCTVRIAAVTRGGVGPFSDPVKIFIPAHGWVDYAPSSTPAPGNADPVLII

T3: human MerTK expressed on cells (human, UniProt Q12866 21-999)
T3 construct: whole, on cells; also called CHO-K1-hMerTK; CHO-K1-MerTK
T3 sequence (looked up): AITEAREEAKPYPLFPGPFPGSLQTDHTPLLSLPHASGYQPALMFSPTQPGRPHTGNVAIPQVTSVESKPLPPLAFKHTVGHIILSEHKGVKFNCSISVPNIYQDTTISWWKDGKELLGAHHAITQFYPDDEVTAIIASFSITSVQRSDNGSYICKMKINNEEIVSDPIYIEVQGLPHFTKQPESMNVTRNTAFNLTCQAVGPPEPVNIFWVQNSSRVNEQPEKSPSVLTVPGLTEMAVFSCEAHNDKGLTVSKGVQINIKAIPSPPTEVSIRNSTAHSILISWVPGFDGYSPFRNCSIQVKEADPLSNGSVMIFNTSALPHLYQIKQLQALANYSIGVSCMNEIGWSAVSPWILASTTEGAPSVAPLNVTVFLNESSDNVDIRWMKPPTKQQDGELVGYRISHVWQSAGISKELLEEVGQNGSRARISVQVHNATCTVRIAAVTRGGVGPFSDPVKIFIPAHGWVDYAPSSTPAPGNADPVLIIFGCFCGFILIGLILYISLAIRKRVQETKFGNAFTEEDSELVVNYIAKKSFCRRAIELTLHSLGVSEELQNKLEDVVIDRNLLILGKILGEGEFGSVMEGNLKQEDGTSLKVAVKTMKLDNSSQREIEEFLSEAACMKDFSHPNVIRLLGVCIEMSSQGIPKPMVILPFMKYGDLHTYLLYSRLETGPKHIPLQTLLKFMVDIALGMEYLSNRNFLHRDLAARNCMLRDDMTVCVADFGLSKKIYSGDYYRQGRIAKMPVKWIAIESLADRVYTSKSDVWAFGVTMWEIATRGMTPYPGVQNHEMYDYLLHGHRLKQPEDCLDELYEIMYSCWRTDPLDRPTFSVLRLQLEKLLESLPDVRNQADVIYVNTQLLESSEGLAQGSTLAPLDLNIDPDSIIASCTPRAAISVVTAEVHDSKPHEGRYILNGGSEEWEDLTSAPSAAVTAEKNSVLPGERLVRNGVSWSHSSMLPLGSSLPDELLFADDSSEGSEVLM


How the values were obtained:
cyno MerTK-his protein [1] = biological target: T1, cyno MerTK-his protein; experiment: ELISA, plate coated with cyno MerTK-his, anti-human IgG Fc-HRP, OD 450nm
cyno MerTK-his protein [2] = biological target: T1, cyno MerTK-his protein; experiment: as above; remark: listed apart in the source
human MerTK-his protein [3] = biological target: T2, human MerTK-his protein; experiment: ELISA, plate coated with human MerTK-his, anti-human IgG Fc-HRP, OD 450nm
human MerTK-his protein [4] = biological target: T2, human MerTK-his protein; experiment: ELISA, plate coated with human MerTK-his, OD 450nm
Experimental: To evaluate the binding activity, the chimeric mAbs were subjected to ELISA test. Briefly, 96-well plates were coated with human or cyno MerTK-his protein at 2 μg/mL in PBS, 100 μL/well at 4° C. overnight, then blocked with 150 μL/well of 1% BSA. Five-fold dilutions of MerTK antibodies starting from 20 nM were added to each well and incubated for 1 hour at room temperature. The plates were washed with PBS/Tween-20 and then incubated with goat anti-human IgG Fe antibody conjugated with Horse Radish Peroxidase (HRP) for 30 minutes (mins) at room temperature. After washing, the plates were developed with TMB substrate and subsequent stop solution was added to complete the reaction. The signal from each well was read by spectrophotometer at OD 450 nm.
To evaluate the antigen binding activity, the humanized antibodies were subjected to ELISA test as described before.

[5] = biological target: T3, human MerTK expressed on cells; experiment: FACS on CHO-K1 cells overexpressing human MerTK, MFI (AF488)

EC50 (cyno MerTK-his protein [1]) [nM] | EC50 (cyno MerTK-his protein [2]) [nM] | EC50 (human MerTK-his protein [3]) [nM] | EC50 (human MerTK-his protein [4]) [nM] | EC50 [5] [nM] | Binder
0.027 | 0.044 | 0.037 | – | – | h13B4.v16 benchmark antibody (antibody, V domains shown) VH: EVQLVESGEGLVQPGGSLRLSCAASGFSLSSYAMGWVRQAPGKGLEYVGIINSYGNTYYANWAKGRFTISRDNSKNTVYLQMGSLRAEDMAVYYCARDPGVSSNLWGRGTLVTVSS VL: DIQMTQSPSTLSASVGDRVTITCQASQNIYSGLAWYQQKPGKAPKLLIYGASKLASGVPSRFSGSGSGTEFTLTISSLQPDDFATYYCQATYYSSNSVAFGGGTKVEIK
– | – | – | 0.098 | 0.18 | 265F11B5 chimeric monoclonal antibody (antibody, V domains shown) VH: QVQLQQSGPELVKPGASVRLSCKASGYTFTTYDINWVKQRPGLGLEWIGWIYPRDGYTKYNEKFKGRATLAVDTSSSTAYMELHSLTSEDSAVYFCTRGYYDNLYYFDYWGQGTTLTVSS VL: EIVLTQSPTTVAASPGEKITITCSASSIISSNYFHWYQQRPGFSPKLLIYRTSNLASGVPARFSGSGSGTSYSLTIGTMEAEDVATYYCQQGRSVPLTFGAGTKLELK

Reference: US20260028422A1 (CONCEPT TO MEDICINE BIOTECH, published 2026)
